In US20230226096A1 (Orna Therapeutics, Inc., priority 2020, published 2023):

system: HEK293 cells; type: cell-based, human; conditions: luminescence from secreted Gluc in supernatant 24 hours after transfection of HEK293 cells; circular RNA encoding Gluc with the named IRES (UTR truncated to 675 nt)

Molecule	Expression
Cripavirus (nucleic acid, listed as Cripavirus sp.) DNA: GCAAAATCGGTAGTACGTTAAACGTACGACCACCGATGAGACTGAAATGACACTAGTTGAGATTATTTCAATATCCTAGTGTTATAAAGTCAATATTTGTTGGTTGATCGTTTCGTCAATCGATGGCGCTGACAGCCGGAAAGACGGCAATAATAAAAACCAAGATTTAGTTTTTAAGTTTTGATTGAATTGCAAAAGCTATCTTGAATAGACAATCAAAATATTAAGTAAAGCAAAAGCTTCTTAAAGAAGACAATATTTAATTAGTTAGTAACCAAACCTCATCGTGCCCCTAAGGGTTAACCGGTTACGTAAAAGCGTAGAGGTATTAAGGTCACTGCGGAGACCTAAAATCCGCAATTTTATGTTTTGTAATGTTTTAGTTATAGACTTAGATGTAACTATAAGAGTTTATAAATACTTGTTTCAAGATTTATAGACAAGATCTGATCCTATGGATTTTAGATAACCTTCATGTTAGTGGATAGTGTGTGTACCTATCTAAACGCATAAGGCTCTTATTTCATATTTAAAGTAGGACTATGTATTACGGCGCATCTAACGGTAACGTTAGTCAAGACCGGAGAATCTCGGAATGAATTTTAGTAATTCCCAAATTTATA	1.95E+05
Canine picodicistrovirus strain 209 (nucleic acid) DNA: CGCTCTTTATACAAATCTGTCAACCCTTTGTATAACTCTAAGCCGAACAATTATAGCTAGGCTTTTTATTATATAACATTAATTAGGCATTAGCGTTGTCGCCAATCTCTTGGTAATCCTAAGGATACCTTTCCTGTTGACTAAGATGAAGCGCCTTCGGTTACCGATGCCCGGTGTCCACGAAGCCATCGTGGTCGGCCGCGTCCCCCACCTCTCCCAACTTGGACTCCATGTTTTCAGTAGGTGTAATGATTAGTATTATTGATTCTGCTCGTTCAATGTGTTTATCTTCACGATCTGGGACCCAACACATGCTTCACTCATGTTTAAATGTTGGTTCCCTCATTTTGAAGACACCCAAACCATAGAGTGCGAGAATGAGGATTTCTACTTCCATTCTGGTAACAGAAATGAATTCCTGCGTGTGTCTCGTAAATGGAATCTTTAAGAACTTCAGATAAATCGAACAATACACTAATACAAGTTGTTTTCTACCAACATGTTCAATGCGGCTAATCTGACCGTGGAGCTGTGAAGCGCTCAAACCCGAGTGTTGTATACAGTCGTAATGCGTAAGTCCATGAGGAACCGACTACTGTTACCTCTGTTGGTGTGTTTCTCCTTTCCTCTCTTTTATTATTATTTGTTATTGCAAATACTACAACTTTGATCAAC	2.79E+06
Canine kobuvirus (nucleic acid, listed as Kobuvirus sp.) DNA: TTTAAGTGTTGTGCCCAATCTCTTGACTCCTGCTGGAACCACCGACCAGTAGTGTCCAAAATGCCAGGTGGAAAATCCTCCCTTCCCCTCTGGGCTTCATGCCCGGCATCCTCCCCCCAGCCTGACGTGCCACAGGCTGTGCAAAGACCCCGCGAAAGCTGCCAAAAGTGGCAATTGTGGGTCCCCCCTTTGTCAAGGCGTCGAGTCTTTCTCCCTTAAGGCTAGTCCTGTCAGTGAACTCTGTCGGGCAACTAGTGACGCCACTGCATGCCTCCGACCTCGGCCGCGGAGTGCTGCCCCCCAAGTCATGCCCCTGACCACAAGTTGTGCTGTCTGGCAAACATTGTCTGTGAGAATGTTCCGCTGTGGCTGCCAAGCCTGGTAACAGGCTGCCCCAGTGTGCGTAATTCTCATCCAGACTTCGGTCTGGCAACTTGCTGTTAAGACATGGCGTAAGGGGCGTGTGCCAACGCCCTGGAACGAGTGTCCACTCTAATACCCCGAGGAATGCTACGCAGGTACCCCTGGCTCGCCAGGGATCTGAGCGTAGGCTAATTGTCTAAGGGTATTTTCATTTCCCACCCTCTTCTTCTTGTTCATA	1.48E+08
Bovine hepacivirus (nucleic acid, listed as Hepacivirus sp.) DNA: CCATCGACACTCCAGGCTCACGGATTAAGTTAGGTTCCGCCGAAGCGGGCTAACCAGGCCCCTAGTAGGAGGCGCCTATCCCGTGAGCCCTTTCCCCACGGATTGAGTGGAGCTGGAGCTGGGAAGGACCGAGTACGGTCCAATCGAGAAGAACCCTGATGAACATTCCAGGCCTCTTCGGTAGATTTGGATATATCCACCAGTGAAGGCGGGGTCGTGGGTACAGGCCCCCTAGTCCACACAGCCTGATAGGGTCCTGCCGCAGGATCCGTGGGTGCGGCTGTACATGTACC	1.89E+05
Canine distemper virus (nucleic acid, listed as Canine morbillivirus, chemistry not fully specified) DNA: ACCAGACAAAGTTGGCTAAGGATAGTTAAATTATTGAATATTTTATTAAAAACTTAGGGTCAATGATCCTACCTTAAAGAACAAGGCTAGGGTTCAGACCTACCAAT	3.02E+05
Botrytis cinerea mitovirus 2 RdRp (nucleic acid, listed as Mitovirus sp.) DNA: GGAACTTTTCAGTTCCAGAAGTGGCTTTATTAAGCCTTCAAAGTTTACACTTTGAACCTGCGATTAATTCCCCATAGTGACTCTTGTTACTGTGAATTAGGAATAGTTGTAGTTCAACTTCTAATGAGGTGAACAATATAATAACTCATCTTATTAACCCTATACGTAGACAATTGTCCAAAGAGACAGTTGGAATTCTGCCAATCTGGAATGTTTGGTACGCGTAGAAGATAATAAGAGACCCTCTATTCCCCTGCCTCATGACTAAGTCATGGCCCGGGGTGTAATAGAGATACTTTTATATATTATACAATC	8.73E+04
Rafivirus WHWGGF74766 (nucleic acid, listed as Rafivirus sp.) DNA: TGCGAATTTATTCGCACAGTCTCTTTTCCCCCATCTTGTGTGTGTGATGGGGTAAGCCGCAGAGTAATACCTACTCTGCTGCAAACACACTCACTCTTTTCTATCTACTTTATATCATGTAATAATAAGTAGGGAACATATTCAATTCATATTGTTCATCTCACTGAACCCGCATGAAGGACTGCATTGCATATCCTGGACGAAGTGACGTGGAATATTTGGACATTTATGGATTGGACACCATTACGCTTTGTGCCTCTACGGAGATGTAACCATAATCTTAAGTAGTAGTACCCCAGCACAAGAGGATAAAGTGGCATACACGACAACGGGTGTTGCTCGCACCTTAGTAATGTGGATGTTCACCCTTGGAGCGTGCTGAAACTCTGTGGGTAAAGACACACATTAGTACAAATGTGGGGGAACTCACTGAAAGGGCATGTCCCGTGTACTGGTGTGCCGGAAAGTGGGGGTCGCTTTCTGGAGAACTTAGTAGTTCTTGTTATTGGGTGATAGCCTTGCGGCGGATCAACTCACAGTTTTAATCCGTTGTTTTGCAT	4.53E+06
Chicken picornavirus 3 (nucleic acid) DNA: GGGTATGGTGGTTAACCCCGTCCACTGGGCATCTTTGCCCTCTCAGAAGTGGATCAATCCACCCCAACTCCCCCCCTGGTTACCTGAGCCACAGTGGACTCCGGTGACGAAGCTAGGGACCCCAATACCTCAAGTGCCAAGAGAGTCCCCCCCTCGCGAGAGGTGCTCTTGGGCCCAAAAGGCTAGTTGGCAGAGTGAAGTGAAGGAAGCTGCTAACGTGGTGACCTTAAGCGTAATTCGAAGCTGACCTTTGAGGTTAACCCTAGTGGACCACTGGAGGAATCTGTGGAGGTGGTGGTTAGGAAAGTTGGCCACTTGTGAGTAGATGCCCAGAAGGCATAAGGCTGATCTGGGGCCAGTGACTATACCGTTCCGGTAAACCTGGTATAAAAACCATGAAAGCAAGTGGGTGAAATTTTCTCTTTTTATCCTTCATTCAGCAGTTGATATTGGCAAA	9.13E+04
Coronavirus AcCoV-JC34 (nucleic acid) DNA: AGAAACAAGTAGTGTTTTAAAAACCTTCAAATTAGTGCCTGTAACATCTTTGCAATGAAAGTAGCGCTCACTAGCCTCTATGCAAAGAATGTTAAAAGAAATACGAAGCATTTAAAGAATACAATCTATCTAGGATAGGTACAATTCTCCTCCCCCTCTTGACTTCGGTCAACTCAACTCAACTAAACGAAATCCCCCTTGCATGGTTCCGACCCGTGTAAGGTTGTGTATTTCGTGCAGTCGTTGCCCTTACTAGTGTAAGCGTAACGGCATCTAGGTTTGCACGTCTTGGAGGAAACGGTGTGTACGTTTCTAGTGTTTACGCCGTATCGGTTCCGGCCCGATAGGTATTGCATTAGACGTCCTGGGTGGTTCTGCCTGCCCTTGTGTGATTCGGCTGTTCCGTCAGTTTGGTCACCTCACACGTCCTTAAGAC	1.82E+05
Camel alphacoronavirus (nucleic acid, listed as Alphacoronavirus sp.) DNA: CTTAAGTGTCTTATCTATCTATAGATAGAAAAGTCGCTTTTTAGACTTTGTGTCTACTCTTCTCAACTAAACGAAATTTTTGCTACGGCCGGCATCTCTGATGCTGGAGTCGTGGCGTAATTGAAATTTCATTTGGGTTGCAACAGTTTGGAAATAAGTGCTGTGCGTCCTAGTCTAAGGGTTCTGTGTTCTGTCACGGGATTCCATTCTACAAACGCCTTACTCGAGGTTCTGTCTCGTGTTTGTGTGGAAGCAAAGTTCTGTCTTTGTGGAAACCAGTAACTGTTCCTA	2.48E+05
Botrytis cinerea mitovirus 4 RdRp (nucleic acid, listed as Mitovirus sp.) DNA: GCCCCGCCGACCTTCCTATTTATTTCTAAATAGGAAGGTCCCGACTAGTCGGATAATTCGGTTTAACGAATTATGGTTAGATCTATTAAAGTTAAAATAGATTGAATTTCTTTCTCATCCTCCTTATTCCTATACTTTGGGAGTAAATGACAAATGTCTATCCTCAAACCGAAATGGCTTAAGTGATGAATTTGAAAGAAAGGTAGGTTTTAAGAATATAAGGCATCAATATATTATACCCTTGAATGTTAAGTGACCACGGCGTGACGATTAGGGCTATCTTAGGATAGACAGCCATCTAACGCGACAGCAGTGGAAATCAGCTTAGCATCTCAAGATCATGTATAATATATACATAACCTTACAATTATAAAACCAAACCAAAACACACTATAATTTTATATAAATTATAGAAGTATCGGACCTGGACGGTACCTACTATTAACTGATAGTAGCCAAATGCAGGAAGCTC	9.68E+04
Human coxsackievirus A2 (nucleic acid) DNA: ACCTTTGTGCGCCTGTTTTATATCCCCACCCCGAGTAAACGTTAGAAGTTACGCAACCCCGATCAATAGTAGGTGTAGCACTCCAGCTGCATCGAGATCAAGCACTTCTGTCTCCCCGGACCGAGTATCAATAGACTGCTAACGCGGTTGAAGGAGAAAACGTTCGTTACCCGGCCAATTACTTCGAGAAGCCCAGTAGTGCCGTGAAAGTTGCGGAGTGTTTCGCTCAGCACTTCCCCCGTGTAGATCAGGCTGATGAGTCACCGCGATCCCCACAGGTGACTGTGGCGGTGGCTGCGTTGGCGGCCTGCCTATGGGGCAACCCATAGGACGCTCTAATACAGACATGGTGCGAAGAGCCTATTGAGCTAATTGGTAGTCCTCCGGCCCCTGAATGCGGCTAATCCTAACTGCGGAGCACATGCCCTCAAACCAGGGGGTGGTGTGTCGTAACGGGTAACTCTGCAGCGGAACCGACTACTTTGGGTGTCCGTGTTTCTTTTTATTCTTATAATGGCTGCTTATGGTGACAATTAAAGAATTGTTACCATATAGCTATTGGATTGGCCATCCGGTGACTAACAAATCGCTCATATACCAGTTTGTTGGTTTTGTTCCCTTATCACATACAGCTCATAACACCCTCTTATATTTACTACAATTGAATAGCAAGAA	7.75E+07
